Sequences and labels used below:
B1: OAS1 (parent)
chain: YIGTHEYPHFSHRPSTLQAASTPQ
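Further: lentivirally expressed fusions sorted by FACS into six bins by GFP to DsRed ratio, PSI derived from sequencing read proportions per bin multiplied by bin number.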

This data set covers variants of B1. As to the kind of experiment: protein stability index of a GFP-peptide fusion (GPS, HEK-293T) (PSI 1-6); higher = more stable. The following applies: c terminus: a fixed tail appended.
In the case of YIGTHEYPHFSHKPSTLQAASTPQ, the protein stability index is 2.12.

Consider YIGTHEYPHFSHYPSTLQAASTPQ, for which the protein stability index stood at 2.09.

Take YIGTHEYPHFSHEPSTLQAASTPQ: the protein stability index was found to be 2.19.

For the variant YIGTHEYPHFSHDPSTLQAASTPQ, the protein stability index was 2.52.

Take YIGTHEYPHFSHQPSTLQAASTPQ: the protein stability index is 1.99.

For the variant YIGTHEYPHFSHFPSTLQAASTPQ, the protein stability index is 1.33.

Consider YIGTHEYPHFSHCPSTLQAASTPQ, for which the protein stability index was 1.26.

On to YIGTHEYPHFSHWPSTLQAASTPQ, for which the protein stability index was found to be 3.13.

As to YIGTHEYPHFSHLPSTLQAASTPQ, the protein stability index turned out to be 1.66.

As to YIGTHEYPHFSHTPSTLQAASTPQ, the protein stability index turned out to be 1.79.

With YIGTHEYPHFSHIPSTLQAASTPQ, the protein stability index came out at 1.92.

For the variant YIGTHEYPHFSHNPSTLQAASTPQ, the protein stability index came to 1.8.

With YIGTHEYPHFSHSPSTLQAASTPQ, the protein stability index worked out at 2.18.

As to YIGTHEYPHFSHGPSTLQAASTPQ, the protein stability index was determined as 1.92.

On to YIGTHEYPHFSHAPSTLQAASTPQ, for which the protein stability index was 2.58.

For the variant YIGTHEYPHFSHMPSTLQAASTPQ, the protein stability index turned out to be 2.19.

In the case of YIGTHEYPHFSHVPSTLQAASTPQ, the protein stability index worked out at 2.67.

For YIGTHEYPHFSHHPSTLQAASTPQ, the protein stability index stood at 2.29.

For the variant YIGTHEYPHFNHRPSTLQAASTPQ, the protein stability index amounted to 2.31.

As for YIGTHEYPHFMHRPSTLQAASTPQ, the protein stability index was 1.93.

On to YIGTHEYPHFDHRPSTLQAASTPQ, for which the protein stability index was found to be 2.64.

Take YIGTHEYPHFRHRPSTLQAASTPQ: the protein stability index stood at 2.09.

For YIGTHEYPHFHHRPSTLQAASTPQ, the protein stability index came to 1.98.

YIGTHEYPHFVHRPSTLQAASTPQ: the protein stability index was found to be 2.85.

With YIGTHEYPHFKHRPSTLQAASTPQ, the protein stability index is 1.92.

As to YIGTHEYPHFLHRPSTLQAASTPQ, the protein stability index stood at 2.54.

YIGTHEYPHFEHRPSTLQAASTPQ: the protein stability index came out at 2.56.

Take YIGTHEYPHFPHRPSTLQAASTPQ: the protein stability index is 2.44.

On to YIGTHEYPHFQHRPSTLQAASTPQ, for which the protein stability index was 2.71.

Turning to YIGTHEYPHFIHRPSTLQAASTPQ, the protein stability index amounted to 2.71.

For YIGTHEYPHFAHRPSTLQAASTPQ, the protein stability index turned out to be 1.96.

YIGTHEYPHFWHRPSTLQAASTPQ: the protein stability index was 2.76.

As for YIGTHEYPHFYHRPSTLQAASTPQ, the protein stability index worked out at 3.04.

YIGTHEYPHFTHRPSTLQAASTPQ: the protein stability index stood at 1.76.

Turning to YIGTHEYPHFCHRPSTLQAASTPQ, the protein stability index was found to be 2.65.

As for YIGTHEYPHFFHRPSTLQAASTPQ, the protein stability index worked out at 3.55.

As for YIGTHEYPHFGHRPSTLQAASTPQ, the protein stability index was 2.14.

Regarding YIGTHEYPHFSHRYSTLQAASTPQ, the protein stability index came out at 2.09.

In the case of YIGTHEYPHFSHRNSTLQAASTPQ, the protein stability index amounted to 2.1.

With YIGTHEYPHFSHRVSTLQAASTPQ, the protein stability index turned out to be 2.48.

For the variant YIGTHEYPHFSHRQSTLQAASTPQ, the protein stability index was 2.22.

YIGTHEYPHFSHRKSTLQAASTPQ: the protein stability index stood at 2.13.

Turning to YIGTHEYPHFSHRESTLQAASTPQ, the protein stability index came to 2.17.

For the variant YIGTHEYPHFSHRASTLQAASTPQ, the protein stability index came out at 1.81.

As for YIGTHEYPHFSHRCSTLQAASTPQ, the protein stability index was 1.78.

As for YIGTHEYPHFSHRGSTLQAASTPQ, the protein stability index came out at 2.21.

For the variant YIGTHEYPHFSHRWSTLQAASTPQ, the protein stability index was 2.81.

As for YIGTHEYPHFSHRMSTLQAASTPQ, the protein stability index came to 1.74.

In the case of YIGTHEYPHFSHRISTLQAASTPQ, the protein stability index was found to be 1.72.

In the case of YIGTHEYPHFSHRFSTLQAASTPQ, the protein stability index turned out to be 1.49.

Regarding YIGTHEYPHFSHRDSTLQAASTPQ, the protein stability index came out at 2.1.

For YIGTHEYPHFSHRLSTLQAASTPQ, the protein stability index turned out to be 1.7.

Turning to YIGTHEYPHFSHRTSTLQAASTPQ, the protein stability index was found to be 1.98.

For YIGTHEYPHFSHRSSTLQAASTPQ, the protein stability index was 1.64.

With YIGTHEYPHFSHRRSTLQAASTPQ, the protein stability index came to 1.9.

YIGTHEYPHFSHRHSTLQAASTPQ: the protein stability index worked out at 2.1.

In the case of YIGTHEYPHFSHRPSSLQAASTPQ, the protein stability index was found to be 2.34.

Regarding YIGTHEYPHFSHRPSMLQAASTPQ, the protein stability index is 1.42.

With YIGTHEYPHFSHRPSPLQAASTPQ, the protein stability index worked out at 2.14.

Regarding YIGTHEYPHFSHRPSELQAASTPQ, the protein stability index was found to be 2.46.

YIGTHEYPHFSHRPSHLQAASTPQ: the protein stability index amounted to 2.02.

On to YIGTHEYPHFSHRPSWLQAASTPQ, for which the protein stability index turned out to be 2.23.

YIGTHEYPHFSHRPSFLQAASTPQ: the protein stability index came to 1.92.

As for YIGTHEYPHFSHRPSCLQAASTPQ, the protein stability index is 1.68.

Turning to YIGTHEYPHFSHRPSNLQAASTPQ, the protein stability index turned out to be 1.62.

Turning to YIGTHEYPHFSHRPSLLQAASTPQ, the protein stability index was 2.22.

In the case of YIGTHEYPHFSHRPSILQAASTPQ, the protein stability index is 1.6.

Turning to YIGTHEYPHFSHRPSRLQAASTPQ, the protein stability index is 2.4.

As to YIGTHEYPHFSHRPSKLQAASTPQ, the protein stability index worked out at 2.08.

Consider YIGTHEYPHFSHRPSQLQAASTPQ, for which the protein stability index was 2.3.

Regarding YIGTHEYPHFSHRPSDLQAASTPQ, the protein stability index amounted to 2.13.

On to YIGTHEYPHFSHRPSVLQAASTPQ, for which the protein stability index is 1.73.

As for YIGTHEYPHFSHRPSALQAASTPQ, the protein stability index came out at 2.29.

For the variant YIGTHEYPHFSHRPSGLQAASTPQ, the protein stability index was determined as 1.62.

On to YIGTHEYPHFSHRPSYLQAASTPQ, for which the protein stability index was determined as 1.98.

For YIGTHEYPCFSHRPSTLQAASTPQ, the protein stability index worked out at 1.48.

Turning to YIGTHEYPTFSHRPSTLQAASTPQ, the protein stability index amounted to 2.09.

Turning to YIGTHEYPDFSHRPSTLQAASTPQ, the protein stability index amounted to 2.75.

As for YIGTHEYPLFSHRPSTLQAASTPQ, the protein stability index amounted to 1.67.

YIGTHEYPSFSHRPSTLQAASTPQ: the protein stability index worked out at 2.09.

Turning to YIGTHEYPGFSHRPSTLQAASTPQ, the protein stability index stood at 1.95.

Take YIGTHEYPVFSHRPSTLQAASTPQ: the protein stability index came to 1.78.

On to YIGTHEYPPFSHRPSTLQAASTPQ, for which the protein stability index amounted to 1.44.

As for YIGTHEYPFFSHRPSTLQAASTPQ, the protein stability index is 2.2.

As for YIGTHEYPKFSHRPSTLQAASTPQ, the protein stability index came to 1.94.

Take YIGTHEYPMFSHRPSTLQAASTPQ: the protein stability index turned out to be 2.33.

YIGTHEYPWFSHRPSTLQAASTPQ: the protein stability index came to 3.41.

YIGTHEYPYFSHRPSTLQAASTPQ: the protein stability index amounted to 2.83.

For YIGTHEYPAFSHRPSTLQAASTPQ, the protein stability index was determined as 1.87.

Turning to YIGTHEYPQFSHRPSTLQAASTPQ, the protein stability index was found to be 2.12.

For the variant YIGTHEYPIFSHRPSTLQAASTPQ, the protein stability index is 2.18.

Regarding YIGTHEYPRFSHRPSTLQAASTPQ, the protein stability index was found to be 2.08.

Consider YIGTHEYPNFSHRPSTLQAASTPQ, for which the protein stability index was found to be 2.4.

Consider YIGTHEYPEFSHRPSTLQAASTPQ, for which the protein stability index was 3.17.

For the origin of these results see the supplement of paper PMC10567573.
